The results in this text go back to IntAct's records for PubMed 24590075.

The chains are these.
B1: Zinc finger MYND domain-containing protein 11 (Mus musculus), Q8R5C8 (parent)
chain: MARLTKRRQADTKAIQHLWAAIEIIRNQKQIANIDRITKYMSRVHGMHPKETTRQLSLAVKDGLIVETLTVGCKGSKAGIEQEGYWLPGDEIDWETETHDWYCFECHLPGEVLICDLCFRVYHSKCLSDEFRLRDSSSHWQCPVCRSIKKKHSNKQEMGTYLRFIVSRMKERAIDLNKKGKDSKHPMYRRLVHSAVDVPTIQEKVNEGKYRSYEEFKADAQLLLHNTVIFYGADSEQADIARMLYKDTCHELDELQLCKNCFYLSNARPDNWFCYPCIPNHELVWAKMKGFGFWPAKVMQKEDNQVDVRFFGHHHQRAWIPSENIQDITVNVHRLHVKRSMGWKKACDELELHQRFLREGRFWKSKNEDRGEEEAESSISSTSNEQLKVTQEPRAKKGRRNQSVEPKKEEPEPETEAVSSSQEIPTMPQPIERVSVSTQTKKLSASSPRMLHRSTQTTSDGVCQSMCHDKYTKIFNDFKDRMKSDHKRETERVVREALEKLRSEMEEEKRQAVNKAVASLQGDMDRKGKQLKEKCKEEFVEEIKKLAAQHKQLISQTKKKQWCYNCEEEAMYHCCWNTSYCSIKCQQEHWHAEHKRTCRRKR

Variants of B1 are the subject of assay [1]. The conditions noted are these: with h33_human H3-3A.
Variants of B1 are the subject of assay [2]. The conditions noted are these: with h33_human H3-3A. The source holds these as a separate data set.

As to F310A, the “effect of a mutation on the interaction” value with h33_human H3-3A, P84243 [1] is recorded as “disrupting interaction strength”; in the assay with h33_human H3-3A, P84243 [2], “decreasing interaction strength”. With D307N, the “effect of a mutation on the interaction” value with h33_human H3-3A, P84243 [2] is recorded as “decreasing interaction strength”. On to W294A, for which the “effect of a mutation on the interaction” value with h33_human H3-3A, P84243 [1] is “disrupting interaction strength”; with h33_human H3-3A, P84243 [2], “decreasing interaction strength”. The corresponding values for N266A are “disrupting interaction strength” and “decreasing interaction strength”. For R168A, in that order: “disrupting interaction strength” and “decreasing interaction strength”. F291A: the “effect of a mutation on the interaction” value with h33_human H3-3A, P84243 [1] is “disrupting interaction strength”. For the variant E251A, the “effect of a mutation on the interaction” value with h33_human H3-3A, P84243 [1] is listed as “disrupting interaction strength”; with h33_human H3-3A, P84243 [2], “decreasing interaction strength”.
